Like-named read-outs stand apart in the source and are kept apart here.
Columns and labels:
[1] = target: IgG1 heavy chain with CH3 construct 69 (L351D, L368E) (human) [IgG part: P01857]; experiment: native MS; combination 12 co-expressed (A: VH MF1337, B: VH MF1122)
[2] = target: IgG1 heavy chain with CH3 construct 69 (L351D, L368E) (human) [IgG part: P01857]; experiment: native MS of gel filtrated sample 1516:1337 (MF1516 on DE-side)
[3] = target: IgG1 heavy chain with CH3 construct 2 (K392D, K409D) (human) [IgG part: P01857]; experiment: native MS (peak height); transfection #9 of Table 24; crossed dimer B/69 with D/2
[4] = target: IgG1 heavy chain with CH3 construct 69 (L351D, L368E) (human) [IgG part: P01857]; experiment: native MS (peak height); Tr. 2; AA = DE-DE homodimer of 1337-DE
[5] = target: IgG1 heavy chain with CH3 construct 69 (L351D, L368E) (human) [IgG part: P01857]; experiment: SDS-PAGE of protein A-purified supernatant; construct expressed alone
[6] = target: IgG1 heavy chain with CH3 construct 69 (L351D, L368E) (human) [IgG part: P01857]; experiment: native MS; combination 3 co-expressed (A: VH MF1337, B: VH MF1122)
[7] = target: IgG1 heavy chain with CH3 construct 69 (L351D, L368E) (human) [IgG part: P01857]; experiment: native MS (peak height); Tr. 4; CC = DE-DE homodimer of 1025-DE
[8] = target: IgG1 heavy chain with CH3 construct 68 (T366K, L351K) (human) [IgG part: P01857]; experiment: batch test before the pK study; 1516:1337 (MF1516 on DE-side, MF1337 on KK-side)
[9] = target: IgG1 heavy chain with CH3 construct 69 (L351D, L368E) (human) [IgG part: P01857]; experiment: native MS (peak height); Tr. 3, 1:2:1; BC = 1025-KK with 1122-DE
[10] = target: IgG1 heavy chain with CH3 construct 69 (L351D, L368E) (human) [IgG part: P01857]; experiment: native MS (peak height); Tr. 5, 2:1:1; AB = 1337-KK with 1122-DE
[11] = target: IgG1 heavy chain with CH3 construct 69 (L351D, L368E) (human) [IgG part: P01857]; experiment: native MS (peak height); Tr. 6, 1:1:2; BB = 1122-KK with 1122-DE
[12] = target: IgG1 heavy chain with CH3 construct 69 (L351D, L368E) (human) [IgG part: P01857]; experiment: native MS (peak height); Tr. 2, 2:1:1; AB = 1122-KK with 1337-DE
[13] = target: IgG1 heavy chain with CH3 construct 68 (T366K, L351K) (human) [IgG part: P01857]; experiment: native MS; combination 7 co-expressed (A: VH MF1337, B: VH MF1122)
[14] = target: IgG1 heavy chain with CH3 construct 63 (L351D) (human) [IgG part: P01857]; experiment: as above
[15] = target: IgG1 heavy chain with CH3 construct 68 (T366K, L351K) (human) [IgG part: P01857]; experiment: native MS; combination 12 co-expressed (A: VH MF1337, B: VH MF1122)
[16] = target: IgG1 heavy chain with CH3 construct 69 (L351D, L368E) (human) [IgG part: P01857]; experiment: native MS (peak height); Tr. 4, 1:1:2; AC = 1337-KK with 1025-DE
[17] = target: IgG1 heavy chain with CH3 construct 69 (L351D, L368E) (human) [IgG part: P01857]; experiment: native MS (peak height); Tr. 7, 2:1:1; AC = 1337-KK with 1025-DE
[18] = target: IgG1 heavy chain with CH3 construct 69 (L351D, L368E) (human) [IgG part: P01857]; experiment: native MS (peak height); Tr. 4, 1:1:2; BC = 1122-KK with 1025-DE
[19] = target: IgG1 heavy chain with CH3 construct 68 (T366K, L351K) (human) [IgG part: P01857]; experiment: native MS; combination 10 co-expressed (A: VH MF1337, B: VH MF1122)
[20] = target: IgG1 heavy chain with CH3 construct 74 (L351D, Y349D) (human) [IgG part: P01857]; experiment: as above
[21] = target: IgG1 heavy chain with CH3 construct 69 (L351D, L368E) (human) [IgG part: P01857]; experiment: native MS (peak height); Tr. 1, 2:1:1; AB = 1337-KK with 1122-DE
[22] = target: IgG1 heavy chain with CH3 construct 68 (T366K, L351K) (human) [IgG part: P01857]; experiment: SDS-PAGE of protein A-purified supernatant; construct expressed alone
[23] = target: IgG1 heavy chain with CH3 construct 69 (L351D, L368E) (human) [IgG part: P01857]; experiment: native MS (peak height); Tr. 1, 2:1:1; AC = 1337-KK with 1025-DE
[24] = target: IgG1 heavy chain with CH3 construct 69 (L351D, L368E) (human) [IgG part: P01857]; experiment: native MS (peak height); Tr. 10, 1:1; 1337-KK with 1025-DE
[25] = target: IgG1 heavy chain with CH3 construct 69 (L351D, L368E) (human) [IgG part: P01857]; experiment: native MS (peak height); Tr. 7, 2:1:1; AA = 1337-KK with 1337-DE
[26] = target: IgG1 heavy chain with CH3 construct 75 (L351D, Y349D, R355D) (human) [IgG part: P01857]; experiment: native MS; combination 9 co-expressed (A: VH MF1337, B: VH MF1122)
[27] = target: IgG1 heavy chain with CH3 construct 68 (T366K, L351K) (human) [IgG part: P01857]; experiment: as above
[28] = target: IgG1 heavy chain with CH3 construct 72 (L351D, R355D) (human) [IgG part: P01857]; experiment: native MS; combination 8 co-expressed (A: VH MF1337, B: VH MF1122)
[29] = target: IgG1 heavy chain with CH3 construct 68 (T366K, L351K) (human) [IgG part: P01857]; experiment: as above
[30] = target: IgG1 heavy chain with CH3 construct 69 (L351D, L368E) (human) [IgG part: P01857]
[31] = target: IgG1 heavy chain with CH3 construct 69 (L351D, L368E) (human) [IgG part: P01857]; experiment: native MS (peak height); Tr. 11; by a transfection error 1025-DE stood with 1337-KK instead of 1122-KK
[32] = target: IgG1 heavy chain with CH3 construct 69 (L351D, L368E) (human) [IgG part: P01857]; experiment: native MS (peak height); Tr. 6, 1:1:2; AB = 1337-KK with 1122-DE
[33] = target: IgG1 heavy chain with CH3 construct 69 (L351D, L368E) (human) [IgG part: P01857]; experiment: native MS (peak height); Tr. 2, 2:1:1; AC = 1025-KK with 1337-DE
[34] = target: IgG1 heavy chain with CH3 construct 69 (L351D, L368E) (human) [IgG part: P01857]; experiment: native MS (peak height); Tr. 3, 1:2:1; AB = 1337-KK with 1122-DE
[35] = target: IgG1 heavy chain with CH3 construct 71 (L351D, Y349E) (human) [IgG part: P01857]; experiment: native MS; combination 11 co-expressed (A: VH MF1337, B: VH MF1122)
[36] = target: IgG1 heavy chain with CH3 construct 68 (T366K, L351K) (human) [IgG part: P01857]; experiment: as above
[37] = target: IgG1 heavy chain with CH3 construct 69 (L351D, L368E) (human) [IgG part: P01857]; experiment: native MS (peak height); Tr. 8, 1:1:2; CC = 1025-KK with 1025-DE
[38] = target: IgG1 heavy chain with CH3 construct 69 (L351D, L368E) (human) [IgG part: P01857]; experiment: native MS (peak height); Tr. 8, 1:1:2; AC = 1337-KK with 1025-DE
[39] = target: IgG1 heavy chain with CH3 construct 69 (L351D, L368E) (human) [IgG part: P01857]; experiment: native MS (peak height); transfection #11 of Table 24; AB = A/68 with B/69
[40] = target: IgG1 heavy chain with CH3 construct 69 (L351D, L368E) (human) [IgG part: P01857]; experiment: native MS (peak height); Tr. 5, 2:1:1; AA = 1337-KK with 1337-DE
[41] = target: IgG1 heavy chain with CH3 construct 69 (L351D, L368E) (human) [IgG part: P01857]; experiment: native MS (peak height); Tr. 9, 1:1; 1337-KK with 1122-DE

Substance: IgG1 heavy chain with CH3 construct 69 (L351D, L368E) (from UniProt P01857-1)
- % BB found [1]: 0%
- percent of species in the sample [2]: 2%
- percent of species in the mixture [3]: 3%
- Observed species (%) [4]: 6%
- % IgG [5]: 83.7%
- % half molecule [5]: 16.3%
- % BB found [6]: 0%
- Observed species (%) [7]: 1%
- percent bispecific IgG [8]: > 90%

Substance: IgG1 heavy chain with CH3 construct 68 (T366K, L351K) (from UniProt P01857-1)
- Observed species (%) [9]: 46%
- Observed species (%) [10]: 43%
- Observed species (%) [11]: 25%
- Observed species (%) [12]: 40%
- % AA found [13]: 0%
- % AB found [14]: 77%
- % AB found [1]: 92%
- % AA found [15]: 0%
- Observed species (%) [16]: 66%
- Observed species (%) [17]: 54%
- Observed species (%) [18]: 33%
- % AA found [19]: 1%
- % AB found [20]: 95%
- Observed species (%) [21]: 43%
- % IgG [22]: 34.7%
- % half molecule [22]: 65.3%
- Observed species (%) [23]: 57%
- Observed species (%) [24]: > 98%
- Observed species (%) [25]: 46%
- % AB found [26]: 93%
- % AA found [27]: 1%
- % AB found [28]: 79%
- % AA found [29]: 0%
- percent of species in the mixture [30]: 30%
- Observed species (%) [31]: > 98%
- Observed species (%) [32]: 75%
- Observed species (%) [33]: 54%
- Observed species (%) [34]: 54%
- % AB found [35]: 95%
- % AA found [36]: 1%
- Observed species (%) [37]: 40%
- Observed species (%) [38]: 60%
- percent of species in the mixture [39]: 33%
- Observed species (%) [40]: 57%
- Observed species (%) [41]: > 98%

— patent publication US20150139996A1
